From paper PMC3433420
pKd: −log10 of the molar value. Where “and” joins values, the source holds several entries; their conditions need not be identical. Identical values can stand only once.

How the values were obtained:
[1] = target: ErbB2 Y1221 non-phosphorylated peptide, rhodamine-labelled (human); test: fluorescence polarisation; saturation binding in solution: rhodamine peptide fixed at 10 nM, protein titrated 0.002-10 uM, 20 min at room temperature; assay buffer 20 mM HEPES, 100 mM KCl, 0.1% Tween-20, 5 mM DTT, pH 7.8; apparent KD
[2] = target: ErbB2pY1196 phosphopeptide, rhodamine-labelled (human); test: as above
[3] = target: ErbB3pY1307 phosphopeptide, rhodamine-labelled (human); test: as above
[4] = target: ErbB2 Y735 non-phosphorylated peptide, rhodamine-labelled (human); test: as above
ABL2 SH2 domain (human) = ABL2 SH2 domain (human) (UniProt P42684); test: peptide or protein array; SH2/PTB proteins spotted on aldehyde slides, rhodamine peptide titrated in buffer B (20 mM HEPES, 100 mM KCl, 0.1% Tween-20, 5 mM DTT, pH 7.8), 1 h at room temperature; replicate assays
Chain of ABL2 SH2 domain (human) (P42684 173-263): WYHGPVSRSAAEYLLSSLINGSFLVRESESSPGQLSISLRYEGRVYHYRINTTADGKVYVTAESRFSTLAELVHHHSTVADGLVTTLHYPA

BLK SH2 domain (human) = BLK SH2 domain (human) (UniProt P51451); test: as above
Chain of BLK SH2 domain (human) (P51451 124-220): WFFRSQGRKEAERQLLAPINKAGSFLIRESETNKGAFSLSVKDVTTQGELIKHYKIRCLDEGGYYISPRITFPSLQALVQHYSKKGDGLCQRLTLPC

BLNK SH2 domain (human) = BLNK SH2 domain (human) (UniProt Q8WV28); test: as above
Chain of BLNK SH2 domain (human) (Q8WV28 346-453): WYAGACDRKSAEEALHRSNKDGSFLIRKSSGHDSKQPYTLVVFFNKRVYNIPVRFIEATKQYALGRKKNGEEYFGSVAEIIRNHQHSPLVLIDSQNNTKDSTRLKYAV

BTK SH2 domain (human) = BTK SH2 domain (human) (UniProt Q06187); test: as above
Chain of BTK SH2 domain (human) (Q06187 281-377): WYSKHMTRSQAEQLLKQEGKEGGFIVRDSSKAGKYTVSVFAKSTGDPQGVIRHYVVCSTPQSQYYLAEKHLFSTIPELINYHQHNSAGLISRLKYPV

HCK SH2 domain (human) = HCK SH2 domain (human) (UniProt P08631); test: as above
Chain of HCK SH2 domain (human) (P08631 144-241): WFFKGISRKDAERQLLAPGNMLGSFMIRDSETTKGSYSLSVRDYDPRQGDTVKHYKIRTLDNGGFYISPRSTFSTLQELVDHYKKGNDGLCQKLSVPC

NCK1 SH2 domain (human) = NCK1 SH2 domain (human) (UniProt P16333); test: as above
[5] = target: PIK3R2 tandem SH2 domains (human) (UniProt O00459); test: as above
Chain of PIK3R2 tandem SH2 domains (human) (O00459 whole entry, the tested form may be a part): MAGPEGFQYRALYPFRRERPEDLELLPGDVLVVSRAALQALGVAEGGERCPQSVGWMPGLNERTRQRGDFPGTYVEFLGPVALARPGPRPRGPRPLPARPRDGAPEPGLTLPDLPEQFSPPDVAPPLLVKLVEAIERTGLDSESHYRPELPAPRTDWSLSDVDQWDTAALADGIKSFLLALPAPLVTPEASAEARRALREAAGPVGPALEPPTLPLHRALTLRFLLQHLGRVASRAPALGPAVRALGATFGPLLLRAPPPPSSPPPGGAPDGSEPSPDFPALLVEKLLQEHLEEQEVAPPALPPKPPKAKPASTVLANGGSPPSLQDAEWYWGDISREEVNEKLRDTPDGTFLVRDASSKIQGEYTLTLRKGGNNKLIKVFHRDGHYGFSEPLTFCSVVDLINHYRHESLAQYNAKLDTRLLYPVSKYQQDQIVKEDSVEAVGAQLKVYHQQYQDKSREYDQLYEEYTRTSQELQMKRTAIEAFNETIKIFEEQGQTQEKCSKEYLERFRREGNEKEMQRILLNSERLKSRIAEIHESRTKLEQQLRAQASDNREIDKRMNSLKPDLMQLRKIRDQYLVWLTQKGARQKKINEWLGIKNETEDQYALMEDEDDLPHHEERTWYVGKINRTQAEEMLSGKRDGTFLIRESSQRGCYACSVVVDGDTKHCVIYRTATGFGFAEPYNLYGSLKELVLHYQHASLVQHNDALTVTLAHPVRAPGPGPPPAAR

[6] = target: PLCG2 tandem SH2 domains (human); test: as above
PTK6 SH2 domain (human) = PTK6 SH2 domain (human) (UniProt Q13882); test: as above
Chain of PTK6 SH2 domain (human) (Q13882 78-170): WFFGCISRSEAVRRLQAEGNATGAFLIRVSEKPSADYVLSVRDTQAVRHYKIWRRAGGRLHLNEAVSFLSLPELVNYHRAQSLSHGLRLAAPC

[7] = target: PTPN6 tandem SH2 domains (human); test: as above
[8] = target: RASA1 N-terminal SH2 domain (human) (UniProt P20936); test: as above
Chain of RASA1 N-terminal SH2 domain (human) (P20936 whole entry, the tested form may be a part): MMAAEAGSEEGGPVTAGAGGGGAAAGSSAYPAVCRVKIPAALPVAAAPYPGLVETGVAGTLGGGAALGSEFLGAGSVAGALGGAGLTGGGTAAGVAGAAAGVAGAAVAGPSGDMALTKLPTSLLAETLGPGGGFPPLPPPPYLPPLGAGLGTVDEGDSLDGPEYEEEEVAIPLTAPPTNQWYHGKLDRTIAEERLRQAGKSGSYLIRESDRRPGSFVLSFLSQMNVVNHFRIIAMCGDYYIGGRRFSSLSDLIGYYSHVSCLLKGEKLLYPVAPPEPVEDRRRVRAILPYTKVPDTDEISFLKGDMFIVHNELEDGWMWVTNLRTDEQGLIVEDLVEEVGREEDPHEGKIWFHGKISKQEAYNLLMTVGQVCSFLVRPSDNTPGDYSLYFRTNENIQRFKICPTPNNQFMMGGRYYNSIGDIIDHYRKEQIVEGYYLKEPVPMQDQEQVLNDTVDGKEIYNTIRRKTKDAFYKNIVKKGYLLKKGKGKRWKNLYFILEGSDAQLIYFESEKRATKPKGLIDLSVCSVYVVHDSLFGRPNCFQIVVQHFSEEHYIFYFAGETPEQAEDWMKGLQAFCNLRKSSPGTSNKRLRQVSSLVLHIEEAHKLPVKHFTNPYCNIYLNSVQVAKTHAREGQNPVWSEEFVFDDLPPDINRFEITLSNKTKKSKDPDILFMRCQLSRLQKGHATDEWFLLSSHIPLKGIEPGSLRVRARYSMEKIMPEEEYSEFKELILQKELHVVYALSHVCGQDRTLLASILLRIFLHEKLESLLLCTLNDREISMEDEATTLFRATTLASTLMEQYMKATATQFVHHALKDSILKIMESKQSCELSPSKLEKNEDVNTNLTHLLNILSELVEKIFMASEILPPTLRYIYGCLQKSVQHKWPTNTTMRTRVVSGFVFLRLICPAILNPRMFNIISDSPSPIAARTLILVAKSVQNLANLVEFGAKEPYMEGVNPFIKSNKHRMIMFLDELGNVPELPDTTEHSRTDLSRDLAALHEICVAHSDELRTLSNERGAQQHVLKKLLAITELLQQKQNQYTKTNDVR

[9] = target: RASA1 tandem SH2 domains (human); test: as above
[10] = target: SH2D1A SH2 domain (human) (UniProt O60880); test: as above
Chain of SH2D1A SH2 domain (human) (O60880 6-104): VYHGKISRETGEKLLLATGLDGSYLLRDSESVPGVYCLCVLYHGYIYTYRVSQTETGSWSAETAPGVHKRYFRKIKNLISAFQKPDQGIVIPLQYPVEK

[11] = target: SH2D3A SH2 domain (human) (UniProt Q9BRG2); test: as above
Chain of SH2D3A SH2 domain (human) (Q9BRG2 15-114): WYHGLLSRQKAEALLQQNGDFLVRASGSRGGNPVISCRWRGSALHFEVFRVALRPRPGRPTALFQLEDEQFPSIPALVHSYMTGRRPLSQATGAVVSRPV

[12] = target: SH2D3C SH2 domain (human) (UniProt Q8N5H7); test: as above
Chain of SH2D3C SH2 domain (human) (Q8N5H7 220-319): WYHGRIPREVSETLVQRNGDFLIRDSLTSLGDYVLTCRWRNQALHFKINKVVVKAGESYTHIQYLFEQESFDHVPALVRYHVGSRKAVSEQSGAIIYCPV

[13] = target: SH3BP2 SH2 domain (human) (UniProt P78314); test: as above
Chain of SH3BP2 SH2 domain (human) (P78314 457-555): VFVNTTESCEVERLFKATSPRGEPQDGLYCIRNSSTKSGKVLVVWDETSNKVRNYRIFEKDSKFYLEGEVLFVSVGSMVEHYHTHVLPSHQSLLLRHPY

SHF SH2 domain (human) = SHF SH2 domain (human) (UniProt Q7M4L6); test: as above
Chain of SHF SH2 domain (human) (Q7M4L6 323-418): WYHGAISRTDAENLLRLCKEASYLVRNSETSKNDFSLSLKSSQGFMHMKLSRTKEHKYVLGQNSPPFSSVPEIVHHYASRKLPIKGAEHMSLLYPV

SRC SH2 domain (human) = SRC SH2 domain (human) (UniProt P12931); test: as above
[14] = target: SYK C-terminal SH2 domain (human); test: as above
[15] = target: SYK N-terminal SH2 domain (human); test: as above
[16] = target: SYK tandem SH2 domains (human); test: as above
TEC SH2 domain (human) = TEC SH2 domain (human) (UniProt P42680); test: as above
Chain of TEC SH2 domain (human) (P42680 247-345): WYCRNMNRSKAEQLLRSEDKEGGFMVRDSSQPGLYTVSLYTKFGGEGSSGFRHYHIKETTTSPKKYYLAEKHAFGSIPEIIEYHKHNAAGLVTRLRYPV

TNS1 SH2 domain (human) = TNS1 SH2 domain (human) (UniProt Q9HBL0); test: as above
Chain of TNS1 SH2 domain (human) (Q9HBL0 1567-1676): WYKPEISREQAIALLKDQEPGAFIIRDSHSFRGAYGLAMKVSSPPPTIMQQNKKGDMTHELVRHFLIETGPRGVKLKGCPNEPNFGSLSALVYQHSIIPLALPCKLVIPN

YES1 SH2 domain (human) = YES1 SH2 domain (human) (UniProt P07947); test: as above
Chain of YES1 SH2 domain (human) (P07947 158-255): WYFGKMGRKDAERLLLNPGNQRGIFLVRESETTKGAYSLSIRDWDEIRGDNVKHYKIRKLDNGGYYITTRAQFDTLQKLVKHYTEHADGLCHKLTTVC

RASA1 N-terminal SH2 domain (from UniProt P20936 1-1047) (domain or fragment)
pKd [1]: 5.43
pKd [2]: 5.73
pKd [3]: 5.73

ZAP70 C-terminal SH2 domain (from UniProt P43403 1-619) (domain or fragment)
pKd [4]: 4.83

ErbB2 pY735 phosphopeptide, rhodamine-labelled, for protein microarrays
pKd (ABL2 SH2 domain (human)): 5.99
pKd (BLK SH2 domain (human)): 6.10 and 6.29
pKd (BLNK SH2 domain (human)): 4.33
pKd (BTK SH2 domain (human)): 5.82
pKd (HCK SH2 domain (human)): 6.05
pKd (NCK1 SH2 domain (human)): 5.28
pKd [5]: 5.83
pKd [6]: 6.24 and 5.54 and 5.99
pKd (PTK6 SH2 domain (human)): 6.10
pKd [7]: 5.27
pKd [8]: 5.46
pKd [9]: 4.09
pKd [10]: 6.13 and 5.79
pKd [11]: 6.11
pKd [12]: 4.56
pKd [13]: 5.41 and 5.80 and 6.20
pKd (SHF SH2 domain (human)): 6.03 and 5.36
pKd (SRC SH2 domain (human)): 5.92
pKd [14]: 6.04
pKd [15]: 6.10 and 5.52
pKd [16]: 6.23 and 6.09
pKd (TEC SH2 domain (human)): 5.49 and 5.06
pKd (TNS1 SH2 domain (human)): 5.80
pKd (YES1 SH2 domain (human)): 6.28 and 5.79
